Measured values taken from the supplement of paper PMC10567573.
± gives the standard deviation.

Experiment: protein stability index of a GFP-peptide fusion (GPS, HEK-293T) (PSI 1-6); higher = more stable
Settings: c terminus: a fixed tail appended
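Also: 24-mer peptide tiles fused after GFP, lentivirally expressed, FACS-sorted into six equal bins by GFP/DsRed ratio, decoded by Illumina sequencing, PSI is the read-weighted mean bin number.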

## SASDGSSFVVARYFPAGNVVNEGF [GLIPR2]
treatment: DMSO
  protein stability index: 2.58 ± 0.29
treatment: MLN4924 1 uM, 8 h
  protein stability index: 2.58 ± 0.35

## AWDNPAYSGPPSPHGTLRVCTISS [PKD2L1]
treatment: DMSO
  protein stability index: 2.93 ± 0.31
treatment: MLN4924 1 uM, 8 h
  protein stability index: 3.05 ± 0.37

## VHTKEQILELLVLEQFLAILPKEL [ZNF396]
treatment: DMSO
  protein stability index: 3.22 ± 0.74
treatment: MLN4924 1 uM, 8 h
  protein stability index: 2.43 ± 0.63

## ELMPSSRLWSLSYTKLPSSLQSTG [SLC25A39]
treatment: DMSO
  protein stability index: 2.48 ± 0.13
treatment: MLN4924 1 uM, 8 h
  protein stability index: 2.47 ± 0.14

## IGEGMTKYDYLMTLHGVVNESTVC [TENT5D]
treatment: DMSO
  protein stability index: 2.53 ± 0.19
treatment: MLN4924 1 uM, 8 h
  protein stability index: 2.33 ± 0.19

## TFPASVLAPVPTHSTVSELSRSPV [DUSP5]
treatment: DMSO
  protein stability index: 3.92 ± 0.082
treatment: MLN4924 1 uM, 8 h
  protein stability index: 4.14 ± 0.39

## LSEAYRVLSREQSRRSYDDQLRSG [DNAJC4]
treatment: DMSO
  protein stability index: 3.2 ± 0.3
treatment: MLN4924 1 uM, 8 h
  protein stability index: 3.03 ± 0.3

## LAQDWERCNTTCGRGVKKRLVLCM [ADAMTSL2]
treatment: DMSO
  protein stability index: 1.56 ± 0.33
treatment: MLN4924 1 uM, 8 h
  protein stability index: 1.79 ± 0.19

## LTCEFNNNHESLDEELHLLIISCR [FBXO39]
treatment: DMSO
  protein stability index: 2.27 ± 0.41
treatment: MLN4924 1 uM, 8 h
  protein stability index: 2.41 ± 0.39

## DSTTTRQRRSRQNPQSPPQDSSVT [HDAC6]
treatment: DMSO
  protein stability index: 5.13 ± 0.24
treatment: MLN4924 1 uM, 8 h
  protein stability index: 5.53 ± 0.098

## VISCTIFIVGMVGNATLLRIIYQN [EDNRA]
treatment: DMSO
  protein stability index: 3.11 ± 0.14
treatment: MLN4924 1 uM, 8 h
  protein stability index: 2.29 ± 0.12

## AAAAAAPAPPPPAGGATAWGDLLG [SNAP91]
treatment: DMSO
  protein stability index: 4.37 ± 0.17
treatment: MLN4924 1 uM, 8 h
  protein stability index: 4.42 ± 0.081

## TYNTKVYKMFASRRKQRYWPFSMD [LOXL2]
treatment: DMSO
  protein stability index: 2.32 ± 0.51
treatment: MLN4924 1 uM, 8 h
  protein stability index: 1.89 ± 0.15

## GVAGGLNRNQGLNRLMLAVRDMMA [TCF25]
treatment: DMSO
  protein stability index: 3.12 ± 0.38
treatment: MLN4924 1 uM, 8 h
  protein stability index: 3.02 ± 0.36

## KPQEIVQVEIFSTNPDLYPVRRID [IQUB]
treatment: DMSO
  protein stability index: 2.82 ± 0.38
treatment: MLN4924 1 uM, 8 h
  protein stability index: 2.79 ± 0.4

## RGYIKPHVDSIKFCGATIAGLSLL [ALKBH7]
treatment: DMSO
  protein stability index: 2.52 ± 0.41
treatment: MLN4924 1 uM, 8 h
  protein stability index: 2.39 ± 0.63

## PLLSASVTGHTNIVDFLTHHAQTS [FEM1C]
treatment: DMSO
  protein stability index: 3.11 ± 0.27
treatment: MLN4924 1 uM, 8 h
  protein stability index: 3.11 ± 0.23

## REEMKLKECVSILPRKESPSVRSS [TNFSF13B]
treatment: DMSO
  protein stability index: 4.61 ± 0.14
treatment: MLN4924 1 uM, 8 h
  protein stability index: 4.73 ± 0.2

## LEHRLNEMERTQAQLRDAVQSLQL [RASAL3]
treatment: DMSO
  protein stability index: 4.16 ± 0.51
treatment: MLN4924 1 uM, 8 h
  protein stability index: 4.22 ± 0.19

## MNCLPSNRTLWRLDLAGNNIPGDV [LRRC45]
treatment: DMSO
  protein stability index: 2.75 ± 0.37
treatment: MLN4924 1 uM, 8 h
  protein stability index: 2.86 ± 0.4

## KVPIAQDELALSLGYAASLEASVQ [C2CD2L]
treatment: DMSO
  protein stability index: 3.65 ± 0.33
treatment: MLN4924 1 uM, 8 h
  protein stability index: 3.64 ± 0.34

## AAQMMDIWVPIKIGALTYFAQADA [ACSBG2]
treatment: DMSO
  protein stability index: 2.28 ± 0.69
treatment: MLN4924 1 uM, 8 h
  protein stability index: 2.85 ± 0.49

## SSADDASAWSNIQEAPLQDDSCLN [FAN1]
treatment: DMSO
  protein stability index: 5.26 ± 0.26
treatment: MLN4924 1 uM, 8 h
  protein stability index: 5.33 ± 0.27

## SLFVLDQNDNAPEILYPALPTDGS [PCDHGA10]
treatment: DMSO
  protein stability index: 3.69 ± 0.33
treatment: MLN4924 1 uM, 8 h
  protein stability index: 3.84 ± 0.32

## SIKGSSGLGGGSSRTSCRLSGGLG [KRT17]
treatment: DMSO
  protein stability index: 3.39 ± 0.19
treatment: MLN4924 1 uM, 8 h
  protein stability index: 3.42 ± 0.28

## GNFDWVGNDFTQNAGTGLVINQAD [PLD5]
treatment: DMSO
  protein stability index: 4.7 ± 0.69
treatment: MLN4924 1 uM, 8 h
  protein stability index: 4.47 ± 0.27

## RGNTYALQTGPLLGRPDSLELQRQ [RSPH3]
treatment: DMSO
  protein stability index: 3.87 ± 0.15
treatment: MLN4924 1 uM, 8 h
  protein stability index: 3.9 ± 0.26

## LDQALKEGGKLPPPPPPSYDPDYI [ZC2HC1A]
treatment: DMSO
  protein stability index: 4.95 ± 0.16
treatment: MLN4924 1 uM, 8 h
  protein stability index: 4.89 ± 0.16

## GKNLYTNEYVAIKLEPIKSRAPQL [CSNK1G1]
treatment: DMSO
  protein stability index: 2.35 ± 0.032
treatment: MLN4924 1 uM, 8 h
  protein stability index: 2.58 ± 0.13

## PPDLGAQRRHGWNPKDCSENIEVK [SPSB2]
treatment: DMSO
  protein stability index: 4.84 ± 0.29
treatment: MLN4924 1 uM, 8 h
  protein stability index: 5.03 ± 0.14

## VRIQNPSLRENDFIEIELDRQELT [ANKRD40]
treatment: DMSO
  protein stability index: 3.04 ± 0.41
treatment: MLN4924 1 uM, 8 h
  protein stability index: 3.26 ± 0.44

## VRQPILQYRWDMMHRLGEPQARMR [BEX1]
treatment: DMSO
  protein stability index: 2.95 ± 0.21
treatment: MLN4924 1 uM, 8 h
  protein stability index: 3.22 ± 0.29

## APRLAVAVPAVTSADSQFSQTTQA [LYSMD4]
treatment: DMSO
  protein stability index: 4.76 ± 0.16
treatment: MLN4924 1 uM, 8 h
  protein stability index: 4.81 ± 0.19

## VAEAFRALASAQCPQFGIPRKRLK [SPOPL]
treatment: DMSO
  protein stability index: 2.73 ± 0.42
treatment: MLN4924 1 uM, 8 h
  protein stability index: 3 ± 0.34

## FQAKKIPIVSSLADPLDTPPDSKE [PDZK1]
treatment: DMSO
  protein stability index: 4.16 ± 0.3
treatment: MLN4924 1 uM, 8 h
  protein stability index: 4.39 ± 0.63

## FSGWISALVVPKGNTAVSVLMLLV [SCAMP3]
treatment: DMSO
  protein stability index: 2.87 ± 0.39
treatment: MLN4924 1 uM, 8 h
  protein stability index: 2.73 ± 0.46

## PCGKYNAMVLELLGPSLEDLFDLC [CSNK1G1]
treatment: DMSO
  protein stability index: 2.69 ± 1.2
treatment: MLN4924 1 uM, 8 h
  protein stability index: 2.21 ± 0.5

## LESYEDIHGTLHLERLAYLHARLR [PRAME]
treatment: DMSO
  protein stability index: 2.41 ± 0.18
treatment: MLN4924 1 uM, 8 h
  protein stability index: 2.61 ± 0.29

## EVHFLHEESILERVQQHIESKLLG [MLH1]
treatment: DMSO
  protein stability index: 2.98 ± 0.19
treatment: MLN4924 1 uM, 8 h
  protein stability index: 3.19 ± 0.24

## VWKHGITPPLKNVRKKRFRKTQKK [TAF7L]
treatment: DMSO
  protein stability index: 3.46 ± 0.16
treatment: MLN4924 1 uM, 8 h
  protein stability index: 3.86 ± 0.17

## TEDFWRMLWEHNSTIVVMLTKLRE [PTPRD]
treatment: DMSO
  protein stability index: 2.21 ± 0.25
treatment: MLN4924 1 uM, 8 h
  protein stability index: 2.23 ± 0.27

## VSISISGSSRPCLDFLQEVTRQPR [ASB7]
treatment: DMSO
  protein stability index: 1.93 ± 0.48
treatment: MLN4924 1 uM, 8 h
  protein stability index: 2.05 ± 0.3

## QYLMASDMAGKIKLWDLRTTKCVR [DCAF4]
treatment: DMSO
  protein stability index: 2.26 ± 0.11
treatment: MLN4924 1 uM, 8 h
  protein stability index: 2.43 ± 0.26

## LLRFGVPSPSTLEPHPRPLLQREL [TNXB]
treatment: DMSO
  protein stability index: 3.08 ± 0.18
treatment: MLN4924 1 uM, 8 h
  protein stability index: 2.93 ± 0.23

## GIELMEVDPIGHVYIFATCLGLSY [MAGEA6]
treatment: DMSO
  protein stability index: 3.02 ± 0.66
treatment: MLN4924 1 uM, 8 h
  protein stability index: 2.92 ± 0.41
